In assay [1] the target is His6-YhaM^WT, recombinant wild-type S. aureus 3'-5' exoribonuclease YhaM (Staphylococcus aureus USA300 JE2). In words: SEC; 60 uM YhaM on HiPrep 16/60 Sephacryl S-100 HR, buffer B (40 mM HEPES pH 7.5, 0.5 M KCl, 10% glycerol); size by gel filtration standard. For orientation: SEC sorts molecules by how far they enter the pores of the column.
Assay [2] has the same target. In words: mass photometry; TwoMP mass photometer, 30 nM protein, 50 mM Na-Tricine pH 8.0, 100 mM KCl without metal or with 1 mM MnSO4, MgSO4 or CoSO4.
Assay [3] has as its target YhaM^WT expressed in the S. aureus ΔyhaM mutant from a plasmid under its native promoter (Staphylococcus aureus USA300 JE2). Put plainly: cross-linking; in vivo, S. aureus ΔyhaM cells carrying pYhaM^WT (OD600 0.8), 1 mM glutaraldehyde for 1-2 h at room temperature, Western blot with anti-YhaM. On the technique in general: Immunoblotting shows a protein as a band on a membrane.

Values joined by “and” are separate entries in the source; they are usually repeats but may differ in a detail not shown here. Equal entries are not always repeated.

The results in this text go back to article PMC11347170, “Staphylococcal exoribonuclease YhaM destabilizes ribosomes by targeting the mRNA of a hibernation factor”.

What is called stoichiometry N is a count of units in the complex or per binding partner. Regarding “His6-YhaM^WT, recombinant wild-type S. aureus 3'-5' exoribonuclease YhaM (enzyme)”, the stoichiometry N in assay [1] amounted to 6. Besides, in assay [2], the percent of particles in a hexameric state with Mn(II) was found to be 80%; the stoichiometry N was 2 and 6.

In the case of “YhaM^WT expressed in the S. aureus ΔyhaM mutant from a plasmid under its native promoter (enzyme)”, the stoichiometry N in assay [3] is 6 and 2 and 4.
